In patent publication US20110150861A1:

Target: human TNFalpha (human) (UniProt P01375)
Test: SPR (BiaCore), antibody purified by protein A and SEC

Sequence of UniProt P01375 (P01375 77-233 limits assumed): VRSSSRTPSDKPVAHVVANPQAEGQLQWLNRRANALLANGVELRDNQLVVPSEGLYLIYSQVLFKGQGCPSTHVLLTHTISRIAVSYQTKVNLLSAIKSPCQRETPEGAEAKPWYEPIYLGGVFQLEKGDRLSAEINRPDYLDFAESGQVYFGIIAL

Substance: D2E7 antibody product secreted from sORF construct pTT3-pfu lon HL (-)
- Kd: 0.0729 nM
- koff: 0.00011 s⁻¹
- kon: 1.51e+06 M⁻¹ s⁻¹
